From paper PMC4739769, “Transmembrane chemokines act as receptors in a novel mechanism termed inverse signaling” (eLife, 2016)

What was measured:
[1] = target: transmembrane CX3CL1, expressed in LOX melanoma cells (human) (UniProt P78423); experiment: cross-linking; isolated membranes of tm-chemokine overexpressing LOX cells (1.5 mg membrane protein, 0.2 M triethanolamine-hydrochloride pH 8.0) with 2 nM recombinant s-chemokine over night at 4°C; 1% paraformaldehyde 1 hr at room temperature; SDS-PAGE and Western blot
[2] = target: T1, transmembrane CXCL16 with a hemagglutinin tag, expressed in LOX melanoma cells (human, UniProt Q9H2A7 30-254); experiment: as above; details: one partner purified
T1 construct: CXCL16, transmembrane form; expression vector CXCL16-HA in pcDNA3.1 as described in Abel et al., 2004; called full-length tm-chemokine in the results; also called tm-CXCL16; CXCL16-HA; source: LOX melanoma cells, transfected (pcDNA3.1), on cells or in isolated membranes
T1 sequence (looked up): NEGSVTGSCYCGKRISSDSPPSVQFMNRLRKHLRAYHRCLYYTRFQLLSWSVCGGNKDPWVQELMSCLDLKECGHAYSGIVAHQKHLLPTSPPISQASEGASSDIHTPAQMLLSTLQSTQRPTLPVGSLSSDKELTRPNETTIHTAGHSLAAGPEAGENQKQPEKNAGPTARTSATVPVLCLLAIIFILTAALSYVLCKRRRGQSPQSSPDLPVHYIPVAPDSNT

Chain of transmembrane CX3CL1, expressed in LOX melanoma cells (human) (P78423 25-397): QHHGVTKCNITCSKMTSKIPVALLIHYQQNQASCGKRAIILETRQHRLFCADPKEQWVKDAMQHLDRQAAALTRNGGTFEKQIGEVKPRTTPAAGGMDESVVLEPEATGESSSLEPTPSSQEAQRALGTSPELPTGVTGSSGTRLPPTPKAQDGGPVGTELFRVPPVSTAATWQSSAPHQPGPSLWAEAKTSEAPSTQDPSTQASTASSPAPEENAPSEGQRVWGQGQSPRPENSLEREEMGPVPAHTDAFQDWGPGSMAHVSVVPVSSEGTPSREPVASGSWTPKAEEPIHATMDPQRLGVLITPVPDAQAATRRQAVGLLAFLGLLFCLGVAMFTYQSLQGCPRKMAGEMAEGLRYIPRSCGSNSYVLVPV

For “soluble CX3CL1 (recombinant human chemokine) (ligand)”, which stoichiometry N [1] is on record?
Its stoichiometry N is 1 to 2.

B1: soluble CXCL16 (recombinant human chemokine) (ligand)
chain: NEGSVTGSCYCGKRISSDSPPSVQFMNRLRKHLRAYHRCLYYTRFQLLSWSVCGGNKDPWVQELMSCLDLKECGHAYSGIVAHQKHLLP
modifications: Cy3 (monoreactive NHS ester) for light microscopy; biotin (One-step antibody biotinylation kit) for flow cytometry; adsorbed to 5 nm gold particles for electron microscopy; no label named for cross-linking and stimulation
For B1, which “stoichiometry N” value [2] is on record?
The value was 1 to 2.
